Laboratory results: patent US20220273751A1 (GPCR THERAPEUTICS, published 2022)

Target: ADRB2 (Adrenoceptor Beta 2) (human, UniProt P07550 1-413)
Assay: cell-based or functional assay

calcium response on co-stimulation with CXCL12 (200 nM) and formoterol (10 uM) relative to CXCL12 alone, HL-60 cells: ~8 fold | calcium response on co-stimulation with CXCL12 (200 nM) and formoterol (10 uM) relative to CXCL12 alone, U937 cells: ~4 fold
B1: CXCR4 (C-X-C Motif Chemokine Receptor 4) (receptor, human, UniProt P61073 1-352, looked up)
chain: MEGISIYTSDNYTEEMGSGDYDSMKEPCFREENANFNKIFLPTIYSIIFLTGIVGNGLVILVMGYQKKLRSMTDKYRLHLSVADLLFVITLPFWAVDAVANWYFGNFLCKAVHVIYTVNLYSSVLILAFISLDRYLAIVHATNSQRPRKLLAEKVVYVGVWIPALLLTIPDFIFANVSEADDRYICDRFYPNDLWVVVFQFQHIMVGLILPGIVILSCYCIIISKLSHSKGHQKRKALKTTVILILAFFACWLPYYIGISIDSFILLEIIKQGCEFENTVHKWISITEALAFFHCCLNPILYAFLGAKFKTSAQHALTSVSRGSSLKILSKGKRGGHSSVSTESESSSFHSS
